Laboratory results: patent publication US20250076311A1 (Chugai, published 2025)
Where a chain is given by its changes, count along the chain named.

What was measured:
[1] = target: T1, cynomolgus monkey FcγRIIIaS extracellular domain with C-terminal His-tag (cynomolgus monkey, UniProt Q8SPW2 21-206 at identity 1.00)); test: SPR, KD(SG1)/KD(variant)
T1 construct: also called cyno FcgRIIIaS; cynoFcγRIIIaS
T1 chain: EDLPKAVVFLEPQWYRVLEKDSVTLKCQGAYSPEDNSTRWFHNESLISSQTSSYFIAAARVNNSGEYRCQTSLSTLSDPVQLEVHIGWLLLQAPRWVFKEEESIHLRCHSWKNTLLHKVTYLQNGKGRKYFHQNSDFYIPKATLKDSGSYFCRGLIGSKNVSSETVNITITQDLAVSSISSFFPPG

[2] = target: T2, cynomolgus monkey FcγRIIa2 extracellular domain with C-terminal His-tag (cynomolgus monkey); test: SPR (Biacore), KD of SG1 / KD of variant
T2 construct: also called cyno FcgRIIa2; cynoFcγRIIa2
T2 chain: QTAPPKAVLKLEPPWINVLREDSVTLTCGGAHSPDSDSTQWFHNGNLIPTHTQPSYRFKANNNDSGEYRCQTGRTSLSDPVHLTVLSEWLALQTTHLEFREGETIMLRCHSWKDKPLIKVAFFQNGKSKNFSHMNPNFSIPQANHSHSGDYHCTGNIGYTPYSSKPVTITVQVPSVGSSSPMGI
Description: (§1) The kinetic analysis of interactions between these antibodies and FcγR was carried out using BIACORE® T200 or BIACORE® 4000 (GE Healthcare). HBS-EP+ (GE Healthcare) was used as the running buffer, and the measurement temperature was set to 25° C. […] After the measurement, the antibody captured on the chip was washed off by allowing reaction with 10 mM glycine-HCl, pH1.5 and 25 mM NaOH so that the chip was regenerated and used repeatedly. The sensorgrams obtained as measurement results were analyzed by the 1:1 Langmuir binding model using the BIACORE® Evaluation Software to calculate the binding rate constant ka (L/mol/s) and dissociation rate constant kd (1/s), and the dissociation constant KD (mol/L) was calculated from these values. […] Regarding such interactions, KD values were calculated using the following 1:1 binding model described in BIACORE® T100 Software Handbook BR1006-48 Edition AE.

[3] = target: T3, cynomolgus monkey FcγRIIb extracellular domain with C-terminal His-tag (cynomolgus monkey); test: SPR (Biacore), KD of SG1 / KD of variant
T3 construct: also called cyno FcgRIIb; cynoFcγRIIb
T3 chain: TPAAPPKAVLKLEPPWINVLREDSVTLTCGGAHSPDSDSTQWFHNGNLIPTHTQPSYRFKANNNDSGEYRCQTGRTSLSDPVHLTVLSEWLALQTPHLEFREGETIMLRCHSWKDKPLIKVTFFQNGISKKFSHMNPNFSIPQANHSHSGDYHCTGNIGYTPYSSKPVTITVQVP
Description: as §1

[4] = target: T4, cynomolgus monkey FcγRIIa3 extracellular domain with C-terminal His-tag (cynomolgus monkey); test: SPR (Biacore), KD of SG1 / KD of variant
T4 construct: also called cyno FcgRIIa3; cynoFcγRIIa3
T4 chain: T2 chain with K127I, N130K, H133P, Q142R
Description: as §1

[5] = target: T5, human FcγRIIaR extracellular domain with C-terminal His-tag (human, UniProt P12318 34-217); test: SPR (Biacore), antibody captured, FcgR analyte
T5 construct: also called human FcgRIIaR; FcγRIIa (type R)
T5 chain: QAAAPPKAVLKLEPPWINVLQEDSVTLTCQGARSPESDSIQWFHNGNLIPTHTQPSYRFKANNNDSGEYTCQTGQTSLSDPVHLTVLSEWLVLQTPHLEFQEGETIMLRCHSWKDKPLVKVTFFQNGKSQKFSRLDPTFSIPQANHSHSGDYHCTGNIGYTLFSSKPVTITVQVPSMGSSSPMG
Description: as §1

[6] = target: T6, human FcγRIIb extracellular domain, His-tagged (human, UniProt P31994 43-217); test: SPR Biacore, KD(SG1)/KD(variant)
T6 construct: also called FcgRIIb (human); not shown: C-terminal His-tag
T6 sequence: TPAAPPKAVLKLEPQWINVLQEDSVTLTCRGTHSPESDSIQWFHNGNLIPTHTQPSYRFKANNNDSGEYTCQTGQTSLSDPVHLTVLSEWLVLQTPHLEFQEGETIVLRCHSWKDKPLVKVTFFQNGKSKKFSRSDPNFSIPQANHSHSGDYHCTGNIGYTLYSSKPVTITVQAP
Description: as §1

[7] = target: T7, cynomolgus monkey FcγRIIa1 extracellular domain with C-terminal His-tag (cynomolgus monkey); test: SPR Biacore, antibody captured, FcgR analyte
T7 construct: also called cyno FcgRIIa1; cynoFcγRIIa1; not shown: His-tag added to C-terminus
T7 chain: T2 chain with T95P, A121T, K127I, S128A, N130K, N135D, Q142R

[8] = target: T8, cynomolgus monkey FcγRIIa3 extracellular domain with C-terminal His-tag (cynomolgus monkey); test: SPR Biacore, antibody captured, FcgR analyte
T8 construct: also called cyno FcgRIIa3; cynoFcγRIIa3; not shown: His-tag added to C-terminus
T8 chain: T2 chain with K127I, N130K, H133P, Q142R

[9] = target: T9, cynomolgus monkey FcγRIIIaS extracellular domain with C-terminal His-tag (cynomolgus monkey, UniProt A3RFZ7 21-206 (rhesus entry)); test: SPR Biacore, antibody captured, FcgR analyte
T9 construct: also called cyno FcgRIIIaS; cynoFcγRIIIaS; not shown: His-tag added to C-terminus

[10] = target: T10, human FcγRIIb extracellular domain with C-terminal His-tag (human, UniProt P31994 43-217); test: SPR Biacore, antibody captured, FcgR analyte
T10 construct: also called human FcgRIIb; not shown: His-tag added to C-terminus
T10 sequence: T6 sequence

[11] = target: T11, cynomolgus monkey FcγRIIa2 extracellular domain, His-tagged (cynomolgus monkey); test: SPR Biacore, antibody captured, FcgR analyte
T11 construct: also called cyno FcγRIIa2; cynoFcgRIIa2; not shown: C-terminal His-tag
T11 chain: T2 chain

[12] = target: T12, cynomolgus monkey FcγRIIb extracellular domain with C-terminal His-tag (cynomolgus monkey); test: SPR Biacore, antibody captured, FcgR analyte
T12 construct: also called cyno FcgRIIb; cynoFcγRIIb; not shown: His-tag added to C-terminus
T12 chain: T3 chain

[13] = target: T13, human FcγRIIaH extracellular domain with C-terminal His-tag (human, UniProt P12318 34-217); test: SPR Biacore, antibody captured, FcgR analyte
T13 construct: also called human FcgRIIaH; FcγRIIa (type H); not shown: His-tag added to C-terminus
T13 sequence: T5 chain with R134H

B1: M103205H795-MY536/M103202L889-SK1 (antibody, human IgG1, kappa, name in EU numbering)
heavy: QVTLKESGPVLVKPTETLTLTCTVSGIDLSHDDISWVRQAPGKGLEWVGIISYAGSTYYASWAKGRLTISKDTSKNQVVLTMTNMDPVDTATYYCARGVPAYSHGGDLWGQGTLVTVSSASTKGPSVFPLAPSSKSTSGGTAALGCLVKDYFPEPVTVSWNSGALTSGVHTFPAVLQSSGLYSLSSVVTVPSSSLGTQTYICNVNHKPSNTKVDKKVEPKSCDKTHTCPPCPGPEWLTGPVVFLFPPKPKDTLMISRTPEVTCVVVDVSDEDPEVKFNWYVDGVEVHNAKTKPREEQYNSTYRVVSVLTVLHQDWLNGKEYKCKVSNKALPKPIEKTISKAKGQPREPQVYTLPPSREEMTKNQVSLTCLVKGFYPSDIAVEWESNGQPENNYKTTPPVLDSDGSFFLYSKLTVDKSRWQQGNVFSCSVMHEALHNHYTQKSLSLSP
light: DIVMTQSPATLSLSPGERATLSCTSSQSVYHANWLSWFQQKPGQPPKLLIYWASTLAYGVPSRFSGSGSGTDFTLTISSLQPEDAATYYCAGGYGGGRYAFGQGTKVEIKRTVAAPSVFIFPPSDEQLKSGTASVVCLLNNFYPREAKVQWKVDNALQSGNSQESVTEQDSKDSTYSLSSTLTLSKADYEKHKVYACEVTHQGLSSPVTKSFNRGEC
notes: copies: 2 + 2
KD fold (SG1 = 1) [1]: 0.23 fold

B2: M103205H795-MY538/M103202L889-SK1 (antibody, human IgG1, kappa, name in EU numbering)
heavy: B1 heavy with V241S, Q297L
light: B1 light
notes: copies: 2 + 2
KD fold (SG1 = 1) [1]: 0.25 fold

B3: M103205H795-MY465/M103202L889-SK1 (antibody)
heavy: B1 heavy with G233K, W236L, V241S
light: B1 light
notes: Substitutions in EU numbering on SG1
KD fold (SG1 = 1) [2]: 1.8 fold
KD fold (SG1 = 1) [3]: 2.5 fold
KD fold (SG1 = 1) [4]: 3.5 fold

B4: M103205H795-MY445/M103202L889-SK1 (antibody, human IgG1, kappa)
heavy: B1 heavy with G233A, P234G, W236L, V241S
light: B1 light
notes: as for B3
Kd [5]: 1100 nM
KD fold (SG1 = 1) [2]: 0.5 fold

B5: M103205H795-MY041/M103202L889-SK1 (antibody, human IgG1, kappa, name in EU numbering)
heavy: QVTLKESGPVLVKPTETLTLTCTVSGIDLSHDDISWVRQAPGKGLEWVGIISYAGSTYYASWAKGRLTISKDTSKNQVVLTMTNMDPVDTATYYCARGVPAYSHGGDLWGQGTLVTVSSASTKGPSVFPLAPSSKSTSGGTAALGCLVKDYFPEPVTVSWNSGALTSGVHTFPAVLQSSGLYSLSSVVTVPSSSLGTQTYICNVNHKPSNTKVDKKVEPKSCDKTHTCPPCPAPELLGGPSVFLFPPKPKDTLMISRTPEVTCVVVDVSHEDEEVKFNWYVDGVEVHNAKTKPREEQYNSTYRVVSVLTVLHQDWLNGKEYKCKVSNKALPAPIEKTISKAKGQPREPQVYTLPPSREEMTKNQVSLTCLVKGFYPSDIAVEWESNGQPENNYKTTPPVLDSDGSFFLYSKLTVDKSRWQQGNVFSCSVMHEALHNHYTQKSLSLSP
light: B1 light
notes: Substitution introduced into M103205H795-SG1; EU numbering
KD fold (SG1 = 1) [6]: 1.5 fold

B6: M103205H795-MY170/M103202L889-SK1 (antibody, human IgG1, kappa, name in EU numbering)
heavy: B1 heavy with G233A, W236L, T238N, V241S, D270E, K332A, P398E
light: B1 light
notes: EU numbering
Kd [7]: 23000 nM
Kd [8]: 1200 nM
KD fold (SG1 = 1) [9]: 0.17 fold
Kd [9]: 7900 nM
KD fold (SG1 = 1) [10]: 2.5 fold

B7: M103205H795-MY180/M103202L889-SK1 (antibody, human IgG1, kappa, name in EU numbering)
heavy: B1 heavy with G233A, W236L, T238N, V241S, D270E, K332A, P398S
light: B1 light
notes: EU numbering
KD fold (SG1 = 1) [7]: 1.7 fold
Kd [8]: 1200 nM
KD fold (SG1 = 1) [9]: 0.17 fold
Kd [9]: 3100 nM
Kd [10]: 1900 nM

B8: M103205H795-MY202/M103202L889-SK1 (antibody, human IgG1, kappa, name in EU numbering)
heavy: B1 heavy with G233A, W236L, T238N
light: B1 light
notes: substitutions in EU numbering, introduced into M103205H795-SG1
KD fold (SG1 = 1) [7]: 3.7 fold
KD fold (SG1 = 1) [9]: 0.09 fold

B9: M103205H795-MY451/M103202L889-SK1 (antibody, human IgG1, kappa)
heavy: B1 heavy with G233A, P234N, W236L, V241S
light: B1 light
notes: as for B3
Kd [5]: 640 nM
KD fold (SG1 = 1) [4]: 2.5 fold

B10: M103205H795-MY442/M103202L889-SK1 (antibody, human IgG1, kappa)
heavy: B1 heavy with G233A, P234D, W236L, V241S
light: B1 light
notes: as for B3
KD fold (SG1 = 1) [3]: 1 fold

B11: M103205H795-MY006/M103202L889-SK1 (antibody, human IgG1, kappa, name in EU numbering)
heavy: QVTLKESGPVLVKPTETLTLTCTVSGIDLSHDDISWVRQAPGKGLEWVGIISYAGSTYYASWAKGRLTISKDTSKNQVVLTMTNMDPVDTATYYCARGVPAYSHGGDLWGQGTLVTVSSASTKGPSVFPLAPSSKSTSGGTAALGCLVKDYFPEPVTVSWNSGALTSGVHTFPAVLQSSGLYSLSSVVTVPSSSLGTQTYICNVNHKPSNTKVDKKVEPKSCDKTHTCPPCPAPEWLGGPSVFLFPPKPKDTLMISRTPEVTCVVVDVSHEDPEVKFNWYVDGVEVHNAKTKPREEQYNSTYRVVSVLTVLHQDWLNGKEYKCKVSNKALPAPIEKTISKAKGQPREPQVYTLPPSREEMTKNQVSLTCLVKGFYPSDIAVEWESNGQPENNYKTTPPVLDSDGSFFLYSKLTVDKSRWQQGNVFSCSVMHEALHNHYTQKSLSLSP
light: B1 light
notes: as for B5
Kd [11]: 1900 nM

B12: M103205H795-MY169/M103202L889-SK1 (antibody, human IgG1, kappa, name in EU numbering)
heavy: B1 heavy with G233A, W236L, T238N, V241S, D270E, K332A, P398D
light: B1 light
notes: EU numbering
Kd [7]: 23000 nM
KD fold (SG1 = 1) [9]: 0.1 fold
Kd [9]: 3500 nM

B13: M103205H795-MY173/M103202L889-SK1 (antibody, human IgG1, kappa, name in EU numbering)
heavy: B1 heavy with G233A, W236L, T238N, V241S, D270E, K332A, P398H
light: B1 light
notes: EU numbering
KD fold (SG1 = 1) [7]: 1.5 fold
Kd [8]: 8000 nM
KD fold (SG1 = 1) [9]: 0.12 fold
Kd [9]: 3100 nM
Kd [12]: 730 nM
Kd [10]: 1000 nM

B14: M103205H795-MY467/M103202L889-SK1 (antibody, human IgG1, kappa)
heavy: B1 heavy with G233M, W236L, V241S
light: B1 light
notes: as for B3
KD fold (SG1 = 1) [3]: 3.5 fold

B15: M103205H795-MY198/M103202L889-SK1 (antibody, human IgG1, kappa, name in EU numbering)
heavy: B1 heavy with G233A, W236L, T238N, P398M
light: B1 light
notes: as for B8
KD fold (SG1 = 1) [7]: 7.5 fold
KD fold (SG1 = 1) [9]: 0.15 fold
KD fold (SG1 = 1) [13]: 1.2 fold
